According to article PMC10345426, “Structural polymorphism of the PH domain in TFIIH” (Bioscience Reports, 2023):
Read-outs that look alike come from different tables or passages of the source.

Legend:
[1] = target: TFIIH p62 PH (Homo sapiens) (UniProt P32780); settings: cited from earlier work
[2] = target: TFIIH p62 PH (Homo sapiens) (UniProt P32780); settings: cited from earlier work; remark: listed apart in the source
[3] = target: TFIIH Tfb1 PH (Saccharomyces cerevisiae) (UniProt P32776); settings: cited from earlier work
TFIIH Tfb1 PH (Saccharomyces cerevisiae), sequence (P32776 1-115): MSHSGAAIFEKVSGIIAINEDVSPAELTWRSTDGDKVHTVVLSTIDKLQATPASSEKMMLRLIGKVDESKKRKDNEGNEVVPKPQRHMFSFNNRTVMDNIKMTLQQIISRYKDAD

[4] = target: T1, PH domain of fission yeast (Schizosaccharomyces pombe) Tfb1, residues 1-108 (Schizosaccharomyces pombe, UniProt O13745 1-108); assay: ITC; VP-ITC; syringe 300 uM peptide, cell 2 ml of 30 uM spPH domain; 25 x 20 ul injections; 20 mM potassium phosphate pH 6.8, 20°C; settings: both partners purified
T1 construct: General transcription and DNA repair factor IIH subunit tfb1 (spTfb1), Schizosaccharomyces pombe, UniProt name TFB1_SCHPO, N-terminal PH domain, residues 1-108; 15N-labelled in the NMR titration; Residues of the vector may be left at the N-terminus after thrombin cleavage (surmised); also called spPH; spPH domain; source: E. coli BL21-Gold (DE3), pET15b, purified (His-tag resin, thrombin …)
T1 sequence (looked up): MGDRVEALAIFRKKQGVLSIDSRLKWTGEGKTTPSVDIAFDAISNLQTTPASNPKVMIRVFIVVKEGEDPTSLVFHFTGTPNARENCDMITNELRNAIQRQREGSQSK

TFIIH p62 PH (Homo sapiens), sequence (P32780 1-108): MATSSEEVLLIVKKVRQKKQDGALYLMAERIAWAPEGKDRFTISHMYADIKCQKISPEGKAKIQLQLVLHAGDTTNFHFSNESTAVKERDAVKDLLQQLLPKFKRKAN
scRad4 acidic string, sequence (P14736 76-115): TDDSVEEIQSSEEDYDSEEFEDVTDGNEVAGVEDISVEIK
TFIIEα acidic domain, sequence (P29083 378-439): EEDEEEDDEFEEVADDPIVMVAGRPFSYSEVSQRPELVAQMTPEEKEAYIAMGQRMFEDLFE
hXPC acidic string, sequence (Q01831 109-156): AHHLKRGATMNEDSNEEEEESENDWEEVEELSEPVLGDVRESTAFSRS

| Molecule | Kd [4] [nM] | other results |
| --- | --- | --- |
| TFIIEα acidic domain (from UniProt P29083) | – | Kd [1]: 95 nM |
| hXPC acidic string (from UniProt Q01831) | – | Kd [2]: 58 nM |
| scRad4 acidic string (from UniProt P14736) | – | Kd [3]: 50 nM |
| DSENVDDEEDDDFLDVTTA (peptide, UniProt Q9P3W1 332-350, looked up, source: synthetic peptide, bought: GenScript) [spTfa1(332-350) peptide, acidic segment of fission yeast Tfa1] | 148 ± 41.3 | – |
| NGFNEDDEDDEDEADFEDV (peptide, UniProt Q9P3W1 416-434, looked up, Tfa1 (homologue of human TFIIEalpha), Schizosaccharomyces pombe, residues 416-434; source: synthetic peptide, bought: GenScript) [spTfa1(416-434) peptide, C-terminal acidic segment of fission yeast Tfa1] | 12.4 ± 6.5 | – |
| DEDNTYSDDEEWLDLDLGL (peptide, UniProt Q10445 4-22, looked up, Rhp41 (homologue of human XPC and S. cerevisiae Rad4), Schizosaccharomyces pombe, residues 4-22 (holds Trp15, Leu16, Leu18, Leu20, Leu22); source: synthetic peptide, bought: GenScript) [spRhp41(4-22) peptide, N-terminal acidic string of fission yeast Rhp41] | 52.1 ± 13.5 | – |
